From IntAct's records for PubMed 23386062
One block for each substance: values may come before it.

What was measured:
nisch_human NISCH [1] = molecular target: nisch_human NISCH (UniProt Q9Y2I1)
nisch_human NISCH [2] = molecular target: nisch_human NISCH (UniProt Q9Y2I1); remark: listed apart in the source
nisch_human NISCH [3] = molecular target: nisch_human NISCH (UniProt Q9Y2I1); remark: listed apart in the source
nisch_human NISCH [4] = molecular target: nisch_human NISCH (UniProt Q9Y2I1); remark: listed apart in the source

UniProt Q9Y2I1, sequence (Q9Y2I1 whole entry): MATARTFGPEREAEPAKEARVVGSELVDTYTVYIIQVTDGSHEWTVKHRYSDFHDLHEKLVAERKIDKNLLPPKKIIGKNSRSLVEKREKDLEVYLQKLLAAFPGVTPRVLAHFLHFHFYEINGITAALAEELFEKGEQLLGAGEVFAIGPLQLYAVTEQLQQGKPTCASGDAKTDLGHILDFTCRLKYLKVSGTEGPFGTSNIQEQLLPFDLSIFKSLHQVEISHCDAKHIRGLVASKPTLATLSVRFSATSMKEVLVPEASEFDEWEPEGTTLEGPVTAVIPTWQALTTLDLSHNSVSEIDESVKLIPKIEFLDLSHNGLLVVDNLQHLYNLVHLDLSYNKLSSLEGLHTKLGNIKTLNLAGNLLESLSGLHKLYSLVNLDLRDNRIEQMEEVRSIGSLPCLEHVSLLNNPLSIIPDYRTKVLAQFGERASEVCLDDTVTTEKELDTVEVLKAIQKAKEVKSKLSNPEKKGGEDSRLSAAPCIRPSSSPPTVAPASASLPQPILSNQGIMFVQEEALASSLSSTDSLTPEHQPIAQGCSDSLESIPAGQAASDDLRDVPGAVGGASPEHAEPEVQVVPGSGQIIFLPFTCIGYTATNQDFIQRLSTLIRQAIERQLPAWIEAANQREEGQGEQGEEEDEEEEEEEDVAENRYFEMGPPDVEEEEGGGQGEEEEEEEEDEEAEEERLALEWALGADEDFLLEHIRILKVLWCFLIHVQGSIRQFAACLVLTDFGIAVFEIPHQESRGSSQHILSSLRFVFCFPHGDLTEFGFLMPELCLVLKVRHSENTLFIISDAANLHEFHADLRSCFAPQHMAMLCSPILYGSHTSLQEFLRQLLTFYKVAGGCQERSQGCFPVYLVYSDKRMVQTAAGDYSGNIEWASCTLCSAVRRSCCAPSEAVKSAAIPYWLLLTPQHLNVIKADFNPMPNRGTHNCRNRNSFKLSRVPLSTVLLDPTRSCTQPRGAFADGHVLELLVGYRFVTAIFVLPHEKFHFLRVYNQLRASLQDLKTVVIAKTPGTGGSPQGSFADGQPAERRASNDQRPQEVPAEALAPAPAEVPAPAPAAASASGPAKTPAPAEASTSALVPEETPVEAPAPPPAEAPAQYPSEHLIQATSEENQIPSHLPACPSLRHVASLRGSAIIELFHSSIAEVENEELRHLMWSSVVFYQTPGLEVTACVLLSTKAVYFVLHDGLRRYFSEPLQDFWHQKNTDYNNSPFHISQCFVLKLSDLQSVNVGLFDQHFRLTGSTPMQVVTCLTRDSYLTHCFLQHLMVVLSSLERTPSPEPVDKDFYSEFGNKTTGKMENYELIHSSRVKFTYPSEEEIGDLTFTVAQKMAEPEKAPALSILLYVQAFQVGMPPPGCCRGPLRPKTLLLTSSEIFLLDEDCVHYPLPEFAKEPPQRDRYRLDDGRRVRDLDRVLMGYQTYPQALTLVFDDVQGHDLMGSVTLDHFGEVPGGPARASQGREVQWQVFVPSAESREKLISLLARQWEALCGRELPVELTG

effect of a mutation on the interaction (nisch_human NISCH [1]): increasing interaction
Substance: Ras-related protein Rab-14 (Rattus norvegicus (Rat)) (from UniProt P61107) Q70L

effect of a mutation on the interaction (nisch_human NISCH [2]): decreasing interaction
Substance: Ras-related protein Rab-14 (Rattus norvegicus (Rat)) (from UniProt P61107) N124I

effect of a mutation on the interaction (nisch_human NISCH [3]): disrupting interaction
effect of a mutation on the interaction (nisch_human NISCH [4]): decreasing interaction
Substance: Ras-related protein Rab-14 (Rattus norvegicus (Rat)) (from UniProt P61107) S25N
